Reference: the Immune Epitope Database (IEDB)

How the values were obtained:
HLA-A*02:01 [1] = assay: IEDB peptide-MHC binding, purified MHC/competitive/fluorescence; ≥ and ≤ were set here for values at or beyond the usual limits of such assays
HLA-B*58:01 = assay: IEDB peptide-MHC binding, purified MHC/direct/fluorescence; filed as Kd, often an IC50 or EC50 that approximates it; ≥ and ≤ were set here for values at or beyond the usual limits of such assays
HLA-A*11:01 [2] = assay: as above; details: source organism: Yellow fever virus
HLA-A*69:01 = assay: as above
HLA-B*07:02 = assay: as above; details: source organism: Homo sapiens
HLA-A*30:01 = assay: IEDB peptide-MHC binding, purified MHC/competitive/radioactivity; filed as Kd, often an IC50 or EC50 that approximates it; ≥ and ≤ were set here for values at or beyond the usual limits of such assays
HLA-A*03:01 = assay: as above; details: source organism: Dengue virus 1 Brazil/97-11/1997
HLA-A*11:01 [3] = assay: as above; details: source organism: Dengue virus 1 Brazil/97-11/1997
HLA-A*02:01 [4] = assay: IEDB peptide-MHC binding, purified MHC/competitive/fluorescence; filed as Kd, often an IC50 or EC50 that approximates it; ≥ and ≤ were set here for values at or beyond the usual limits of such assays
HLA-A*24:02 = assay: IEDB peptide-MHC binding, purified MHC/competitive/radioactivity; filed as Kd, often an IC50 or EC50 that approximates it; ≥ and ≤ were set here for values at or beyond the usual limits of such assays; details: source organism: Dengue virus 1 Nauru/West Pac/1974
HLA-B*15:01 = assay: IEDB peptide-MHC binding, purified MHC/direct/fluorescence; filed as Kd, often an IC50 or EC50 that approximates it; ≥ and ≤ were set here for values at or beyond the usual limits of such assays; details: source organism: Homo sapiens
HLA-A*02:02 = assay: IEDB peptide-MHC binding, purified MHC/competitive/radioactivity; filed as Kd, often an IC50 or EC50 that approximates it; ≥ and ≤ were set here for values at or beyond the usual limits of such assays; details: source organism: Vaccinia virus WR
HLA-A*02:06 = assay: as above; details: source organism: Vaccinia virus WR
HLA-A*02:03 = assay: as above; details: source organism: Vaccinia virus WR
HLA-A*02:01 [5] = assay: IEDB peptide-MHC binding, purified MHC/direct/fluorescence; filed as Kd, often an IC50 or EC50 that approximates it; ≥ and ≤ were set here for values at or beyond the usual limits of such assays
HLA-A*26:01 [6] = assay: as above; details: source organism: Mycobacterium tuberculosis
HLA-A*26:01 [7] = assay: IEDB peptide-MHC binding, purified MHC/competitive/radioactivity; filed as Kd, often an IC50 or EC50 that approximates it; ≥ and ≤ were set here for values at or beyond the usual limits of such assays; details: source organism: Dengue virus 1 Brazil/97-11/1997
[8] = source organism: Vaccinia virus WR
[9] = source organism: Zaire ebolavirus
[10] = source organism: West Nile virus
[11] = source organism: Sudan ebolavirus
[12] = source organism: Mycobacterium tuberculosis
[13] = source organism: Giardia lamblia ATCC 50803

Sequence | Kd (HLA-A*02:02) | Kd (HLA-A*02:06) | Kd (HLA-A*02:03) | also measured
RLDGTTLEV | – | – | – | IC50 (HLA-A*02:01 [1]; source organism: Mycobacterium leprae): 35 nM
RLKVFLPNP | – | – | – | IC50 (HLA-A*02:01 [1]; source organism: Variola virus): 9430 nM
RLVDSIGSW | – | – | – | Kd (HLA-B*58:01; source organism: Influenza A virus (A/swine/IDT/Bakum1832/2000(H1N2))): 128 nM
RMGERQLQK | – | – | – | Kd (HLA-A*11:01 [2]): 29.5 nM
RPASAGAML | – | – | – | Kd (HLA-A*69:01; source organism: Homo sapiens): 8380 nM; Kd (HLA-B*07:02): 34 nM
RSLKAFFSW | – | – | – | Kd (HLA-B*58:01; source organism: Mammarenavirus machupoense): 29.4 nM
RTHTALIFL | – | – | – | Kd (HLA-A*30:01; [8]): 0.704 nM
RTRDLFIAL | – | – | – | Kd (HLA-A*30:01; [8]): 0.108 nM
RYRCSFAVA | – | – | – | Kd (HLA-A*30:01; [8]): 0.00377 nM
SAMVQVHSQ | – | – | – | IC50 (HLA-A*02:01 [1]; [9]): ≥ 609000 nM
SILLSSLLK | – | – | – | Kd (HLA-A*03:01): 8.01 nM; Kd (HLA-A*11:01 [3]): 19.3 nM; Kd (HLA-A*30:01; source organism: Dengue virus 1 Brazil/97-11/1997): 2140 nM
SLARGFPFV | – | – | – | Kd (HLA-A*02:01 [4]; [10]): 1.23 nM; Kd (HLA-A*69:01; [10]): ≤ 1 nM
SNGLITSTV | – | – | – | IC50 (HLA-A*02:01 [1]; [11]): 60400 nM
SYTQVCDHRL | – | – | – | Kd (HLA-A*24:02): 930 nM
TGVGKTSQV | – | – | – | IC50 (HLA-A*02:01 [1]; source organism: Variola virus): 36100 nM
TLFKIDNNT | – | – | – | IC50 (HLA-A*02:01 [1]; [11]): 18700 nM
TSSDPGTNT | – | – | – | IC50 (HLA-A*02:01 [1]; [9]): ≥ 251000 nM
TVVPLMAFL | – | – | – | Kd (HLA-A*02:01 [4]; source organism: Bacillus cereus G9241): 48.5 nM
VGYVDDTQF | – | – | – | Kd (HLA-B*15:01): 572 nM; Kd (HLA-B*58:01; source organism: Homo sapiens): 210 nM; Kd (HLA-B*07:02): 6180 nM
VIVPDIKLDA | ≥ 33500 nM | 883 nM | ≥ 21400 nM | –
VLPPEINSL | – | – | – | Kd (HLA-A*02:01 [5]; [12]): 71.4 nM

Sequence | Kd (HLA-A*02:02) | Kd (HLA-A*02:06) | Kd (HLA-A*02:03) | also measured
VLQQVSNGV | – | – | – | Kd (HLA-A*69:01; [12]): ≥ 20000 nM
VLTSVDIET | 382 nM | 13.7 nM | 11300 nM | –
VMPEKRNVVV | 3540 nM | ≥ 27700 nM | 299 nM | –
VSTAVAALF | – | – | – | Kd (HLA-B*58:01; source organism: Mycobacterium tuberculosis F11): 32.6 nM
VTLNRIKIA | 13300 nM | 625 nM | 407 nM | –
VTPEYIKDL | 10400 nM | 1760 nM | ≥ 78100 nM | –
VTSPLTGNNT | 1450 nM | 5130 nM | 2500 nM | –
VTTLGLPFY | – | – | – | Kd (HLA-A*26:01 [6]): 13000 nM
VTYNIKPVIV | 4920 nM | 358 nM | 116 nM | –
WLKDSAIMV | 191 nM | 2280 nM | 27.9 nM | –
WVMDTLNGIM | 1330 nM | 129 nM | 194 nM | –
YASLTTIGTI | 6290 nM | 83.6 nM | 398 nM | –
YFLESNFFI | – | – | – | Kd (HLA-A*02:01 [5]; [13]): 0.6 nM; Kd (HLA-A*69:01; [13]): 2.2 nM
YGLVSKFMS | – | – | – | IC50 (HLA-A*02:01 [1]; [8]): 25600 nM
YLGIFKNNDV | 14.8 nM | 285 nM | 16.9 nM | –
YLPEVISTIA | 10.9 nM | 17.7 nM | 0.955 nM | –
YLSDSDNIKI | 16.3 nM | 906 nM | 109 nM | –
YQNEVTPEYI | 2.74 nM | 2.59 nM | 0.209 nM | –
YVGDLCGSV | – | – | – | IC50 (HLA-A*02:01 [1]; source organism: Hepatitis C virus genotype 1): ≥ 50000 nM
YVKFIYFIK | – | – | – | Kd (HLA-A*30:01; [8]): 60 nM
YVVIGLLFM | – | – | – | Kd (HLA-A*26:01 [7]): 12500 nM
